Consider 1 protein from paper doi:10.1101/2022.11.20.517256 (bioRxiv, 2022).

The data set concerns the molecule itself. Description: cryo-EM structure.

B1: Erwinia ligand-gated ion channel (ELIC), wild type (natural protein)
chain: APADNAADARPVDVSVSIFINKIYGVNTLEQTYKVDGYIVAQWTGKPRKTPGDKPLIVENTQIERWINNGLWVPALEFINVVGSPDTGNKRLMLFPDGRVIYNARFLGSFSNDMDFRLFPFDRQQFVLELEPFSYNNQQLRFSDIQVYTENIDNEEIDEWWIRKASTHISDIRYDHLSSVQPNQNEFSRITVRIDAVRNPSYYLWSFILPLGLIIAASWSVFWLESFSERLQTSFTLMLTVVAYAFYTSNILPRLPYTTVIDQMIIAGYGSIFAAILLIIFAHHRQAMGVEDDLLIQRCRLAFPLGFLAIGCVLVIRGITL
B1: the “stoichiometry N” value worked out at 5.
